Here are results for 5 molecules from publication PMC11761524 (bioRxiv, 2025).

Assay [1] deals with strep-Cyclin F (1–546)-GST-Skp1 (1–163) (human) (UniProt P41002). Nature of the assay: fluorescence polarisation.
Assay [2] has as its target GST-Cyclin A (173–432) (UniProt P20248). Nature of the assay: fluorescence polarisation.
The subject of assay [3] is CP110. Nature of the assay: Coimmunoprecipitation of Flag-Cyclin F with endogenous CP110 in HEK293T cells. The class given is cell-based. The settings on record: anti-Flag IP, Western blot, vs WT Cyclin F.
For assay [4], the system named is CDC6. Nature of the assay: Coimmunoprecipitation of Flag-Cyclin F with endogenous CDC6 in HEK293T cells. It counts as cell-based. The settings on record: anti-Flag IP, Western blot, vs WT Cyclin F.

UniProt P20248, sequence (P20248 173-432): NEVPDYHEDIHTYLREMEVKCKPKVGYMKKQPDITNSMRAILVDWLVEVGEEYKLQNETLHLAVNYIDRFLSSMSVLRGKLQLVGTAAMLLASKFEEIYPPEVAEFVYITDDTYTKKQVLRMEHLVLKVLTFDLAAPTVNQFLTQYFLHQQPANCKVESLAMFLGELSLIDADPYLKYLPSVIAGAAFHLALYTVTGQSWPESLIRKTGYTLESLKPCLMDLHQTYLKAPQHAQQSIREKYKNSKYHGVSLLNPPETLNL

In the case of “E2F1 peptide V88E (unlabeled) (from UniProt Q01094 84-99)”, the fold decrease in affinity against the wild-type E2F1 peptide in assay [1] worked out at 31 fold; in assay [2], 460 fold.
The corresponding values for “E2F1 peptide R91E (unlabeled) (from UniProt Q01094 84-99)” are 41 fold and 12 fold.
The corresponding values for “E2F1 peptide D93R (unlabeled) (from UniProt Q01094 84-99)” are 3 fold and 3 fold.
The corresponding values for “E2F1 peptide K89E (unlabeled) (from UniProt Q01094 84-99)” are 24 fold and 48 fold.

B1: Cyclin F loop mutant: Flag-Cyclin F mutant containing D504-T511 all changed to alanine (protein)
chain: MGSGGVVHCRCAKCFCYPTKRRIRRRPRNLTILSLPEDVLFHILKWLSVEDILAVRAVHSQLKDLVDNHASVWACASFQELWPSPGNLKLFERAAEKGNFEAAVKLGIAYLYNEGLSVSDEARAEVNGLKASRFFSLAERLNVGAAPFIWLFIRPPWSVSGSCCKAVVHESLRAECQLQRTHKASILHCLGRVLSLFEDEEKQQQAHDLFEEAAHQGCLTSSYLLWESDRRTDVSDPGRCLHSFRKLRDYAAKGCWEAQLSLAKACANANQLGLEVRASSEIVCQLFQASQAVSKQQVFSVQKGLNDTMRYILIDWLVEVATMKDFTSLCLHLTVECVDRYLRRRLVPRYRLQLLGIACMVICTRFISKEILTIREAVWLTDNTYKYEDLVRMMGEIVSALEGKIRVPTVVDYKEVLLTLVPVELRTQHLCSFLCELSLLHTSLSAYAPARLAAAALLLARLTHGQTQPWTTQLWDLTGFSYEDLIPCVLSLHKKCFHDDAPKAAAAAAAAAVKQRFEDKRYGEISQEEVLSYSQLCAALGVTQDSPDPPTFLSTGEIHAFLSSPSGRRTKRKRENSLQEDRGSFVTTPTAELSSQEETLLGSFLDWSLDCCSGYEGDQESEGEKEGDVTAPSGILDVTVVYLNPEQHCCQESSDEEACPEDKGPQDPQALALDTQIPATPGPKPLVRTSREPGKDVTTSGYSSVSTASPTSSVDGGLGALPQPTSVLSLDSDSHTQPCHHQARKSCLQCRPPSPPESSVPQQQVKRINLCIHSEEEDMNLGLVRL
modifications: left off: Flag, end not stated, kept
Take B1: the “association with CP110 (coimmunoprecipitation)” value in assay [3] is “weaker association was more apparent”. The “association with CDC6 (coimmunoprecipitation)” value in assay [4] was “weaker association was more apparent”.
